These are literature values, as cited in publication PMC8416071.

This series concerns the target Spike protein (SARS-CoV) (UniProt P59594). Briefly: ITC. Background: In ITC the heat of successive injections is recorded.

For Griffithsin (from UniProt P84801), the Kd (commonly a measure of binding affinity in units of concentration) was 24.9 nM.
